Key:
[1] = molecular target: ferret α2-antiplasmin (ferret); assay: cell-based or functional assay
[2] = molecular target: T1, human alpha-2-antiplasmin (human, UniProt P08697 40-491, limits assumed, 125I-labelled in the radioimmunoassays; biotinylated in the competition assay of Example 5); assay: cell-based or functional assay
T1 sequence (looked up): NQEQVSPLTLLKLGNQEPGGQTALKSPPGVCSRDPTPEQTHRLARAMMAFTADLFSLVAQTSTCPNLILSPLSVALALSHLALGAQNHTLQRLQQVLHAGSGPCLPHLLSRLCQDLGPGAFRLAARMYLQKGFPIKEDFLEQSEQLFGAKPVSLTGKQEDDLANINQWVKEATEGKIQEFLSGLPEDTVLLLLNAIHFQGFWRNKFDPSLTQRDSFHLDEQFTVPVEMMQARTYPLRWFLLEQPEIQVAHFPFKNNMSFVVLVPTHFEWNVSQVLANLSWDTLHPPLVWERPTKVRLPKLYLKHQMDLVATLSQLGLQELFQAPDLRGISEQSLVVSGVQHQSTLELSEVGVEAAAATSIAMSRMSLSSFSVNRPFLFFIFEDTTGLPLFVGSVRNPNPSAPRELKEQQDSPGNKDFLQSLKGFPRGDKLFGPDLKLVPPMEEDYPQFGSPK

B1: monoclonal antibody 77A3 (antibody, V domains shown)
VH: QIQLVQSGPELKKPGETVKISCKASGYTFTNYGMNWVKQAPGKGLKWMGWINTKSGEPTYAEEFKGRFAFSLETSASTANLQIKNLKNEDTATYFCARWVPGTYAMDYWGQGTSVTVSS
VL: DIQMTQSPASLSASVGETVTITCRASGNIHNYLAWYQQKQGKSPQLLVYNAKTLADGVPSRFSGSGSGTQFSLKINSLQPEDFGSHYCQHFWTTPWTFGGGTKLEIK
[1]
  inhibition of ferret α2AP activity in plasma, ex vivo, 1 and 4 hours after 22.5 mg/kg i.v. (chromogenic plasmin inhibition assay): 75%
[2]
  increase in potency of lysis by urokinase (dose response with and without MAb): ~100 fold

From patent publication US20030031664A1 (GENERAL HOSPITAL, published 2003)
